{"source": "patent US20130089497A1", "about": "(Genentech, published 2013)", "key": {"[1]": {"target": "T1, cynomolgus FcRH5 on stably transfected SVT2 cells (cynomologous monkey)", "T1 construct": "also called cyno FcRH5; cynoFcRH5", "T1 chain": "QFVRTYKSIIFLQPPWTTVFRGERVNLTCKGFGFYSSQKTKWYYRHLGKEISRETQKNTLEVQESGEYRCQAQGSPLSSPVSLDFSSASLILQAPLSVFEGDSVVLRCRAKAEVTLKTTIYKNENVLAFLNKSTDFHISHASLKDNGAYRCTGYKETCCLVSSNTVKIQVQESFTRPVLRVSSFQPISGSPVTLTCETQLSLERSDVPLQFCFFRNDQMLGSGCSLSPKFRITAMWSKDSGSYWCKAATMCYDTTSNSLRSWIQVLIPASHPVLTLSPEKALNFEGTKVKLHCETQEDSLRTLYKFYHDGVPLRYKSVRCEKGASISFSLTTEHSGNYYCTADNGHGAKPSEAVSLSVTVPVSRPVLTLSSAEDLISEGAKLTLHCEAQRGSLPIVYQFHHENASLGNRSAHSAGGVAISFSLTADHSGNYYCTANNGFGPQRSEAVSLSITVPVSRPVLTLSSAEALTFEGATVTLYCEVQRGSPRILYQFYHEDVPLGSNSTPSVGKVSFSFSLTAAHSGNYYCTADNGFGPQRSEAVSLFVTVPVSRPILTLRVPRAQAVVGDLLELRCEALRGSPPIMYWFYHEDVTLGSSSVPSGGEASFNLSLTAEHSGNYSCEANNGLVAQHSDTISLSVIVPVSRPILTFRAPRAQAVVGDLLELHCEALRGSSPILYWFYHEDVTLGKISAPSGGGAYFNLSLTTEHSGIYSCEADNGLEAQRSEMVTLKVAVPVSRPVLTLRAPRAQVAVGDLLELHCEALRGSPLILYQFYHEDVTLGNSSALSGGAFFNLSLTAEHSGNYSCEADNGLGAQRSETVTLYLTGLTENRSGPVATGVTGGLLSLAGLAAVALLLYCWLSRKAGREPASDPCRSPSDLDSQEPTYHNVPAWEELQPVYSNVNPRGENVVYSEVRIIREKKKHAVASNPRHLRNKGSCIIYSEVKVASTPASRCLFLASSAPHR", "test": "Scatchard analysis: 0.5 nM 125I-labeled antibody competed with the unlabeled antibody (50 to 0.02 nM) on SVT2.cyFcRH5 cells, 4 h at 4 C; St. Error 0.064", "description": "To further determine binding of the FcRH5 murine antibodies and IgG clones, binding of iodinated IgG variants to OPM2 cells expressing human FcRH5 and SVT2 cells expressing cynomologous FcRH5, Scatchard analysis was performed (Table 9A).\nFor Scatchard analysis, 0.5 nM I¹²⁵ labeled murine or IgG clone anti-FcRH5 was competed against unlabeled murine or IgG clone anti-FcRH5, respectively, ranging from 50 to 0.02 nM (12 step 1:2 serial dilution) in the presence of a transfected OPM2 line stably expressing human-FcRH5 and a transfected SVT2 line stably expressing cynomologous-FcRH5. After a four hour incubation at 4° C., cells were washed and cell pellet counts were read by a gamma counter (1470 WIZARD Automatic Gamma Counter; Perkin Elmer, Walthem, Mass.). All points were done in triplicate and counted for 10 minutes. The average CPM was used for Kd calculation using the New Ligand (Genentech, South San Francisco, Calif.) program."}, "[2]": {"target": "T2, human FcRH5 (FcRH5c/IRTA2c, PRO52387), soluble recombinant protein (human, UniProt Q96RD9 16-851)", "T2 construct": "also called Hu antigen; FcRH5 protein", "T2 chain": "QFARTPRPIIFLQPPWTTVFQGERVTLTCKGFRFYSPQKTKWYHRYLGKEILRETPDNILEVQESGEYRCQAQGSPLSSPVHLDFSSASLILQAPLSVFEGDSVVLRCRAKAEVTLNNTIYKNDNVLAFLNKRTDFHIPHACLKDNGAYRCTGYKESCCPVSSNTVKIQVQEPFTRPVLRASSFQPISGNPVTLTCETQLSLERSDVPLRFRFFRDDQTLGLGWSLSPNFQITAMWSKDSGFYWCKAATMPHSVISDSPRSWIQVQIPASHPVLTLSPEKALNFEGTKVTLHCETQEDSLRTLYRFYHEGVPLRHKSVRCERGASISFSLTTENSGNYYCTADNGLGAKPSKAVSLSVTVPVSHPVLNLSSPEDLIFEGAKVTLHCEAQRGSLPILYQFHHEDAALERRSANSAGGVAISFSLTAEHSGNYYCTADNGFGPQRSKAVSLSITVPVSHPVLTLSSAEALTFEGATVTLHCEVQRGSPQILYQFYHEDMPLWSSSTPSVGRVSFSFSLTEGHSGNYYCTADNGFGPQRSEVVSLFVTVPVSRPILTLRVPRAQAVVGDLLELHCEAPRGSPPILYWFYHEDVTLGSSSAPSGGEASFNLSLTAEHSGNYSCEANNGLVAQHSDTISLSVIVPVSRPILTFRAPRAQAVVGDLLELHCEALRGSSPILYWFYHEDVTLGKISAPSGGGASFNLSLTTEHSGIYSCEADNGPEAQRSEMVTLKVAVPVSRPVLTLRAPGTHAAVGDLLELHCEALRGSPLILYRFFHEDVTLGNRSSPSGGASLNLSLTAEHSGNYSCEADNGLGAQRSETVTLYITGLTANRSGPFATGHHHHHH", "test": "SPR (Biacore 2000): IgG captured on anti-murine IgG chip, FcRH injected, 25 C, 1:1 Langmuir model", "quoted_text": "The FcRH-binding affinities of IgGs were calculated from association and dissociation rate constants measured using a Biacore 2000 surface plasmon resonance system (BIAcore, Inc.). […] Briefly, for each cycle of kinetic analysis, 5 ul of 100 nM IgG was captured on the chip, two-fold serial dilution of various FcRHs were injected at a flow rate of 20 ul/min for 150 sec. Antigen dissociation was monitored for 180 sec before regeneration. Equilibrium dissociation constants at 25° C. were calculated by fitting the data with a 1:1 Langmuir binding model. Running buffer was PBS with 0.05% Tween −20."}, "[3]": {"target": "T3, gD tagged human FcRH1 on SVT2 cells (human, UniProt Q96LA6 17-429)", "T3 construct": "whole, on cells; also called huFcRH1; not shown: gD tag", "T3 sequence (looked up)": "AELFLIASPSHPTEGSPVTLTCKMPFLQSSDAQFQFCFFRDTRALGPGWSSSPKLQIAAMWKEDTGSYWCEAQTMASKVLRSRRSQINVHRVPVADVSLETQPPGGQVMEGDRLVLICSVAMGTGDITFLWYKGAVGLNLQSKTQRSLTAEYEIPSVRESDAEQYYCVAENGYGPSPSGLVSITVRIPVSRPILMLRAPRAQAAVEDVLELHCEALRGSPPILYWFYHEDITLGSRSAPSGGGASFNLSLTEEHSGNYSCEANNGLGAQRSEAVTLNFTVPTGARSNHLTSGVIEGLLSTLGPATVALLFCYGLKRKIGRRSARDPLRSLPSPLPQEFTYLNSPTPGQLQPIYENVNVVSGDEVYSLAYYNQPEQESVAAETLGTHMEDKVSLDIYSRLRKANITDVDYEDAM", "test": "FACS, SVT2.MSCV.gD.FcRH1 cells, PE secondary antibody"}}}
{"binder": "murine monoclonal antibody anti-FcRH5-13G9 (antibody, V domains shown, Whole murine IgG from hybridoma; also called 13G9.1.1; mu13G9) VH: EVQLVQSGPELKKPGETVKISCKASGYTFTNYGMNWVKQAPGKGLKWMGWVNTYTGEPTYTDDFKGRFAFSVETSASTVFLQINNLKNEDTATYFCARRSIPYYYAMDYWGQGTSLT VL: DIVMTQSQKIMSTSVGDRVNVTCKASQNVGSNVAWYHQKPGQSPKALIYSASYRYSGVPDRFTGSGSGTDFTLTISNVQSEDLAEYFCQQYKTWTFGGGTKLEIKR", "values": [{"measurement": "Kd", "setting": "[1]", "value": 0.54, "unit": "nM"}, {"measurement": "Kd", "setting": "[2]", "value": 19, "unit": "nM"}, {"measurement": "binding result", "setting": "[3]", "value": "no binding (tested: 1.0 ug per about 10^6 cells (p-1120))"}]}
